The assay deals with β1 integrin (human (endogenous in EA.hy926), UniProt P05556 21-798). The assay can be described thus: co-IP.
Chain of β1 integrin (P05556 21-798): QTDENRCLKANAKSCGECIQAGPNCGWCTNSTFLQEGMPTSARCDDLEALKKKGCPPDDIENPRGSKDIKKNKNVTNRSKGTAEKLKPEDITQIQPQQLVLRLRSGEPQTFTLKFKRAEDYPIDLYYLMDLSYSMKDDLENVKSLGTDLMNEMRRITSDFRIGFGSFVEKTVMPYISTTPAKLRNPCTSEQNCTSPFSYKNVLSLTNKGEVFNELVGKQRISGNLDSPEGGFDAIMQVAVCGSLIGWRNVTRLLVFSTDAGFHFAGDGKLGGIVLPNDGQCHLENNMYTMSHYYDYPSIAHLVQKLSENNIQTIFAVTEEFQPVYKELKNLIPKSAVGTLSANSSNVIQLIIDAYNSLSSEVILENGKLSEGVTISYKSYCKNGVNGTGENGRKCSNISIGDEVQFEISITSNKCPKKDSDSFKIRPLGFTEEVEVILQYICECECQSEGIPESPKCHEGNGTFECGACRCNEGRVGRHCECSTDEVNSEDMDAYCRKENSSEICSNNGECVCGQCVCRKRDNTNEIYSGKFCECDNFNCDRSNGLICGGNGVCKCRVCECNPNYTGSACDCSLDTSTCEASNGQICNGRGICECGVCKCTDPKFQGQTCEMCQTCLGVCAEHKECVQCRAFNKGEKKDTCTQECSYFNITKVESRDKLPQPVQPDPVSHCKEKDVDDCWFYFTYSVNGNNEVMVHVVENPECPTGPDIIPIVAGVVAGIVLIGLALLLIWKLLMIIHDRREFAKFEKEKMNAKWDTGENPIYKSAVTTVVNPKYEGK

B1: cannabinoid 1 receptor (receptor, human (endogenous in EA.hy926), UniProt P21554 1-472, looked up)
chain: MKSILDGLADTTFRTITTDLLYVGSNDIQYEDIKGDMASKLGYFPQKFPLTSFRGSPFQEKMTAGDNPQLVPADQVNITEFYNKSLSSFKENEENIQCGENFMDIECFMVLNPSQQLAIAVLSLTLGTFTVLENLLVLCVILHSRSLRCRPSYHFIGSLAVADLLGSVIFVYSFIDFHVFHRKDSRNVFLFKLGGVTASFTASVGSLFLTAIDRYISIHRPLAYKRIVTRPKAVVAFCLMWTIAIVIAVLPLLGWNCEKLQSVCSDIFPHIDETYLMFWIGVTSVLLLFIVYAYMYILWKAHSHAVRMIQRGTQKSIIIHTSEDGKVQVTRPDQARMDIRLAKTLVLILVVLIICWGPLLAIMVYDVFGKMNKLIKTVFAFCSMLCLLNSTVNPIIYALRSKDLRHAFRSMFPSCEGTAQPLDNSMGDSDCLHKHANNAASVHRAAESCIKSTVKIAKVTMSVSTDTSAEAL
As for B1, the “normalized CB1R ratio without versus with anandamide (2 mM Ca2+)” value worked out at 1.03 ± 0.04.

The values are drawn from paper PMC4067516 (Journal of cell science, 2008).
